Test results published in paper PMC5766566, “Characterization of human small heat shock protein HSPB1 α-crystallin domain localized mutants associated with hereditary motor neuron diseases” (Scientific Reports, 2018).

Assays:
Settings in all cases: both partners purified
[1] = molecular target: T1, human small heat shock protein HSPB1, wild type (human, UniProt P04792 1-205); assay: cross-linking; disulfide cross-linking of mixtures: 50 μM of each protein in 50 mM sodium phosphate pH 7.5, 100 mM NaCl, 5 mM DTT overnight at 37 °C, then dialysis without DTT at 20 °C for 24 h; non-reducing SDS-PAGE
T1 construct: HSPB1 (HSP27), human; six Trp); Two constructs and two purification routes were used and are said to give indistinguishable proteins; Polydisperse oligomer, on average 23 subunits by SEC-SAXS; also called HSP27; WT HSPB1; source: recombinant (pET23b or pETHSUK construct), expressed as described earlier; purified (ammonium sulfate fractionation, anion-exchange, SEC; or subtractive IMAC, …
T1 sequence (P04792 whole entry): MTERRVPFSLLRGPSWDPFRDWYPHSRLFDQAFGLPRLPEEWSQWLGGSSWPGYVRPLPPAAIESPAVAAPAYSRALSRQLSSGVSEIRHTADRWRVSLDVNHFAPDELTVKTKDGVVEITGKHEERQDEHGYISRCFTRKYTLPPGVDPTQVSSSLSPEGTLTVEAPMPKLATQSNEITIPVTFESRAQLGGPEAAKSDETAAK

human HSPB1 R127W mutant [2] = molecular target: T2, human HSPB1 R127W mutant (human, UniProt P04792 1-205, R127W); assay: as above
T2 construct: HSPB1 (HSP27), human, with the autosomal dominant Charcot-Marie-Tooth mutation R127W; Disease mutation found in patients; Probably the whole protein; SUMO carrier probably removed (subtractive IMAC); source: recombinant (pET23b or pETHSUK construct), expressed as described earlier
T2 sequence (P04792 whole entry R127W): as the sequence (P04792 whole entry) above, with R127W counted along it

human HSPB1 S135F mutant [3] = molecular target: T3, human HSPB1 S135F mutant (human, UniProt P04792 1-205, S135F); assay: as above
T3 construct: HSPB1 (HSP27), human, with the autosomal dominant Charcot-Marie-Tooth mutation S135F; Disease mutation found in patients; Probably the whole protein; SUMO carrier probably removed (subtractive IMAC); The abstract once prints R135F for this mutant; source: recombinant (pET23b or pETHSUK construct), expressed as described earlier; purified (ammonium sulfate fractionation, anion-exchange, SEC; or …)
T3 sequence (P04792 whole entry S135F): as the sequence (P04792 whole entry) above, with S135F counted along it

human HSPB1 R127W mutant [4] = molecular target: T2, human HSPB1 R127W mutant; assay: SEC; equimolar mixture, 30 μM per monomer of each sHSP in buffer S, preincubated at 4 °C for 1 hr, then Superdex 200 HR
human HSPB1 S135F mutant [5] = molecular target: T3, human HSPB1 S135F mutant; assay: as above
[6] = molecular target: T1, human small heat shock protein HSPB1, …; assay: SEC; equimolar mixture, 30 μM per monomer of each sHSP in buffer S, preincubated at 42 °C for 1 hr, then Superdex 200 HR

Measured: binding result

B1: human HSPB6 C46S/E116C double mutant (natural protein, UniProt O14558 1-160, looked up)
chain: MEIPVPVQPSWLRRASAPLPGLSAPGRLFDQRFGEGLLEAELAALSPTTLAPYYLRAPSVALPVAQVPTDPGHFSVLLDVKHFSPEEIAVKVVGEHVEVHARHEERPDEHGFVARCFHRRYRLPPGVDPAAVTSALSPEGVLSIQAAPASAQAPPPAAAK
notes: HSPB6 (HSP20), human, double mutant C46S/E116C made for disulfide cross-linking
binds: [1] | human HSPB1 R127W mutant [2] | human HSPB1 S135F mutant [3]

B2: human HSPB6, wild type (natural protein, UniProt O14558 1-160, looked up)
chain: MEIPVPVQPSWLRRASAPLPGLSAPGRLFDQRFGEGLLEAELAALCPTTLAPYYLRAPSVALPVAQVPTDPGHFSVLLDVKHFSPEEIAVKVVGEHVEVHARHEERPDEHGFVAREFHRRYRLPPGVDPAAVTSALSPEGVLSIQAAPASAQAPPPAAAK
notes: HSPB6 (HSP20), human small heat shock protein; also called HSP20; WT HSPB6
binds: human HSPB1 R127W mutant [4] | human HSPB1 S135F mutant [5] | [6]
